Results reported in patent publication US20110300156A1 (Genmab, published 2011).
Where a chain is given by its changes, count along the chain named.

T1: murine tissue factor (TF) on transfected HEK293F cells (murine, UniProt P20352 29-294)
T1 construct: whole, on cells; also called murine TF; TFmm
T1 sequence (looked up): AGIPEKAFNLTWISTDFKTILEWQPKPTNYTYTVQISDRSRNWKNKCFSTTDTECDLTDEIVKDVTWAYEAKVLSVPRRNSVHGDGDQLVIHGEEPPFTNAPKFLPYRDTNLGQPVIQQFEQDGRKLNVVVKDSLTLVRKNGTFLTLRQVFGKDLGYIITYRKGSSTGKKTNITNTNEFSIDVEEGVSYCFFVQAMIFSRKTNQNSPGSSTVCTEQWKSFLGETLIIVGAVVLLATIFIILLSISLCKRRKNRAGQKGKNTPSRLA

B1: anti-TF HuMab 087-Lg6 (antibody, V domains shown)
VH: EVQLVQSGAEVKKPGESLKISCKGSGYSFTSCWIGWVRQMPGKGLEWMGIIYPGDSDTRYSPSFQGQVTISADKSISTAYLQWSSLKASDTAMYYCARHKLGMDHDAFDIWGQGTMVTVSS
VL: DIQMTQSPSSLSASVGDRVTITCRASQGISSWLAWYQQKPEKAPKSLIYAASSLQSGVPSRFSGSGSGTDFTLTISSLQPEDFATYYCQQYNSYPPTFGQGTTVEVK
notes: Human monoclonal antibody from HuMab mice
B2: anti-TF HuMab 092-A09 (antibody, V domains shown)
VH: EVQLLESGGGLVQPGGSLRLSCAASGFTFNNYAMSWVRQAPGKGLEWVSSISGSGGRTYYADSVKGRFTISRDNSKNTLFLQMNSLRAEDTAVYYCAKTPWGYYFDYWGQGTLVTVSS
VL: B1 VL with W32R, P96Y, T103K, V104L, V106I
notes: as for B1

Tests used:
[1] = biological target: T2, human tissue factor (TF), membrane-bound on cells (human, UniProt P13726 33-295); assay: FACS, Bx-PC3 cells
T2 construct: whole, on cells; also called cellular TF
In short: (§1)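 Specific HuMab binding to cell-surface antigen is detected by flow cytometry using a PE-conjugated anti-human IgGFc secondary.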

[2] = biological target: T2, human tissue factor (TF), …; assay: FACS, MDA-MB-231 cells
In short: as §1

[3] = biological target: T2, human tissue factor (TF), …; assay: cell-based or functional assay
[4] = biological target: T2, human tissue factor (TF), …; assay: FACS, Bx-PC3 cells, 30 µg/mL
In short: as §1

[5] = biological target: T2, human tissue factor (TF), …; assay: FACS, MDA-MB-231 cells, 30 µg/mL
In short: as §1

[6] = biological target: T3, TFECDHis (extracellular domain of tissue factor, amino acid 1-251, with C-terminal His tag) (human, UniProt P13726 33-251); assay: ELISA, coated TFECDHis, mean of 3
T3 construct: range 1-251; The stated range 1-251 starts at residue 1 of NP-001984; also called extracellular domain of TF
In short: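 Plates coated overnight at +4° C with 0.5 μg/mL TFECDHis in PBS pH 7.4, blocked with 2% chicken serum. Serially diluted HuMabs bound 1 h at RT with shaking, detected with HRP anti-human IgG. Binding curves fitted by sigmoidal dose-response with variable slope; anti-KLH HuMab served as negative control.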

[7] = biological target: T3, TFECDHis (extracellular domain of …); assay: SPR BIAcore 3000, HuMab immobilized, TFECDHis analyte
Method: (§2) Antibody binding to TF was analyzed by surface plasmon resonance in a BIAcore 3000 (GE Healthcare). TFECDHis was used for the analysis. HuMab antibodies (500 resonance units) were immobilized on the CM-5 sensor chip according to the procedure recommended by the manufacturer. Briefly, after surface activation by EDC and NHS HuMab antibody was injected over the activated CM-5 surface in 10 mM sodium-acetate, pH ranging from 4.0 to 5.5 at 5 μl/min. followed by 1 M Ethanolamine for deactivation. Concentration series of TFECDHis in HBS-EP buffer were injected over the immobilized antibodies at a flow rate of 30 μl/min for 180 sec. Regeneration of the HuMab surface was performed by injection of 10 mM Glycine-HCl pH 2.0 or 10 mM sodium acetate pH 3.0. Kinetic analysis was performed using double reference subtraction and model 1:1 (langmuir) binding analysis.

[8] = biological target: T3, TFECDHis (extracellular domain of …); assay: competition ELISA, inhibition of FVIIa (100 nM) binding to coated TFECDHis
Method: ELISA plates were coated overnight with TFECDHis (0.5 μg/mL, 100 μL per well). Plates were emptied, blocked with PBS containing 2% (v/v) chicken serum (1 hour, RT), and emptied again. […] Plates were washed and incubated with swine-anti-rabbit IgG-HRP antibody (1:2,500; DAKO). After washing, the immune complexes were visualized using ABTS as a substrate.

[9] = biological target: T1, murine tissue factor (TF) on …; assay: FACS on transfected HEK293F cells, 30 µg/mL antibody [panel I]
[10] = biological target: T3, TFECDHis (extracellular domain of …); assay: SPR BIAcore 3000, HuMab immobilized, TFECDHis analyte; footnote: n.a. not assessable = >10^-3 sec^-1
Method: as §2

[11] = biological target: T2, human tissue factor (TF), …; assay: FACS, A431 cells
In short: as §1

TF (Innovin) = TF (Innovin) (UniProt P13726 33-295, limits assumed); assay: cell-based or functional assay
[12] = biological target: T2, human tissue factor (TF), …; assay: FACS, A431 cells, 30 µg/mL
In short: as §1

[13] = biological target: T2, human tissue factor (TF), …; assay: FACS, TF transfected CHO cells (S1015-TF)
In short: as §1

[14] = biological target: T2, human tissue factor (TF), …; assay: FACS, TF transfected CHO cells (S1015-TF), 7.5 µg/mL
In short: as §1

[15] = biological target: T1, murine tissue factor (TF) on …; assay: FACS on transfected HEK293F cells, 30 µg/mL antibody [panel J]

Binder	EC50 [1]	EC50 [2]	max inhibition of FVIIa induced IL-8 release (MDA-MB-231) [3]	Max MFI [4]	Max MFI [5]	EC50 [6]	kon [7]	max inhibition [8]	binding result [9]	koff [10]	EC50 [11]	IC50, inhibition of blood coagulation (TF induced clotting time) (TF (Innovin))	Max MFI [12]	EC50 [13]	Max MFI [14]	Kd [7]	binding result [15]
B1	7.19 nM	8.28 nM	4.3%	1030	1110	0.09 nM	591000 M⁻¹ s⁻¹	35%	no binding (tested: 30 µg/mL)	> 0.001 s⁻¹							
B2	0.84 nM	0.53 nM		1260	2290	0.18 nM		90%			0.83 nM	0.2 nM	3140	1.32 nM	5410	14.1 nM	no binding (tested: 30 µg/mL)
